Test: yeast display, Sf9 membrane polyspecificity reagent, FACS + sequencing; frameworks hold sequencing errors
In short: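 Genes from sorted yeast were amplified by colony PCR, read by MiSeq 2 × 250 sequencing and filtered on CDR length. These cells carried a synthetic nanobody library in Saccharomyces cerevisiae BJ5465 and were sorted by FACS into low and high (top ~1%) gates on anti-HA and streptavidin fluorescence. Polyreactivity is labelled according to the gate of origin.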

Row | Sequence | polyreactivity (PSR sort gate)
1 | QVQLVESGGGLVQAGGSLRLSCAASGRIFRYYAMGWYRQAPGKERELVATIRSGGSTNYADSVKGRFTISRDNAKNTVYLQMNSLKPEDTEVYYCAATGGILSTYDYWGLGTQVTVSS | high polyreactivity
2 | QVQLVESGGGLVQAGGSLRLSCDASGIIFKYNAMGWYRQAPGKERELVAAITRRGGITYYADSVKGRFTISRDNAKNTVYLQMNSLKPEDTAVYYCAADLVYYHYYPWFYYWGQGTQVTVSS | high polyreactivity
3 | QVQLVESGGGLVQAGGSLRLSCAAYGRTFGLYAMGWYRQAPGKERELVAAISWGGGRTYYADSVKGRFTISRDNAKHTVYLQMNSLKPEDTAVFYCNAVYSPRYYVGGYDYWGQGTQVTVSS | high polyreactivity
4 | QVQLVESGGGFVQAGGSLRLSSAASGRTFDTNAMGWYRQSPGKERELVAAISWSAGRTYYADSVKGRFTISRDNAKNTVYLQMNSLKPEDTAVYYCAADSFTPDYYSHDYCGQGTQVTVSS | low polyreactivity
5 | QVQLVESGGGLVQAGGSLRLSCAASGLTFQNNAMGWYRQAPGKERELVAAISDGGSTNYADSVKGRFTISRDNAKNTVYLQMNSLKPEDTAVYYCAAVYTSASYGSWGQGTQVTVSS | low polyreactivity
6 | QVQLVESGGGLVQAGGSLRLSCAASGNIFVAYAMGWYRQAPGKEREMVAAISSRGGRTYYADSVKGRFTISRDNAKNTVYLQMNSLKPEDTAVYYCATDVGYYRKYEYYYWGQGTQVTVSS | high polyreactivity
7 | QVQLVESGGGLVQAGGSLRLSCAASGFTFSPNAMGWYRQAPGKERELVAAIDWSGDRTYSADSVKGRFTISRDNAKNTVYLQMNSLKPEDTAVYYCNVVRRSPGDYSYFYWGQGTQVTVSS | low polyreactivity
8 | QVQLVESGGGLVQAGGSLRLSCAASGFTFVSYTMGWYRQAPGKERELVAVITKRGGSTYYADSVKGRFTISRDNAKNTVYLQLNCLKPEDTAVYYCNAVQAYKSPSLPLAGGNYWGQGTQVTVSS | high polyreactivity
9 | QVQLVESGGCLVQAGGSLRLICAASGRIVKYAMGWYRQAPGKERELVAAISGSGGTTYYADSVKGRFTISRDNAKNTVYLQMNSLKPEDTAVYYCAASRPRPPSSRRMDYWGQGTQVTVSS | high polyreactivity
10 | QVQLVESGGGLVQAGGSLRLSCAASGIIFGPYAMGWYRQAPGKERELVAAISSSGGNTYYADSVKGRFTISRDNAKNTVYLQMNSLKPEYTAVYYCAAEGYWGQPFDYDGALEYWGQGTQVTVSS | high polyreactivity
11 | QVQLVESGGGLVQAGGSLRLSCAASGFIFASNTMGWYRQAPGKERELVAAISSRGGRTYYAASVKGRFTISRDNAKNTVYLQMNSLKPEDTAVYYCAAVQKGDSTLLRTKGGYWGQGTQVTVSS | high polyreactivity
12 | QDQLVESGGGLVQAGGSLRLSCAASGSIFRTYAMGWYRQAPGKERELVATITYSDGNTYYADSVKGRFTISRDNAKNTVYLQMNSLKPEDTAFYYSNADGIYASISGYRYDYWGQGTLVTVSS | low polyreactivity
13 | QVQLVESGGGLVQAGGSLRLSCAASGGTFYSYAMGWYRQAPGTERELVAAISRRGGSTYYADSVKGRFTISLDNAKNTVYLQMNSLKPEDTAVYYCNTYIYQVRDDYWGQGTQVTVSS | high polyreactivity
14 | QVQLVESGGGLVQAGGSLRLSCAASGSIFHVNAMGWYRQAPGKERELVAGISDGGSTYYADSVKGRFTISRDNAKNTVYLQMNSLKPEDTAVYYCAAESEQWYSYVLSYDWEYDYWGQGTQVTVSS | low polyreactivity
15 | QVQVVESGGGLVQAGGSLRLSCAASGGTFGGYAMGWYRQAPGKERELVAAISSGGSTYYADSVKGRFTISRDNAKNTLYLQMNSLKPEDTAVYYCAAETVLGYWYYRKYYYWGQGTQVTVSS | high polyreactivity
16 | QVQLVESWGGLVQAGGSLRLSCAASGINFQNYDMGWYRQAPGKERELVAAINGSGGSTYYADSVKGRFTISRDNANNTVYLQMNSLKPEDTAVYYCNAVWEYYGKSDYWGQGTQVTVSS | low polyreactivity
17 | QVQLVESWGGLVQSGGSLRLISAASGRTYYYYVMGCYRQAPGKERDLVATINSGASTYYADSVKGRFTISRDNAKNTVYLQMNSLNPEDTAVYYCAACVLRRIAGVRYRYGFWGQGTQVTVSS | high polyreactivity
18 | QVKLVESGGGLVQAGGSLRLSCAASGGIFTDYTMGWSRQAPGKERELVAAITWTGGSTYYADSVKGRFTISRYNAKNTVYLQMNSLKPEDTAVYYCSADDYWVNLDYWGQGTQVNVSS | low polyreactivity
19 | QVQLVESGGGLVQAGGSLRLSCAASGSIFGFNAMGWYRQAPGKEREFVAVISNRGGSTYYADSVKGRFTISRDNAKNTVYLQMNSLKPEDTAVYYCAARPYRDSGYWGQGTQVTVSS | high polyreactivity
20 | QVQLVESGGGIVQAGGSLRLSCAASGRIFDWYVMGWYRQAPGKERELVAAINSGVSTKYADSVKGRFTISRDNAKNTVYLQMNSLKPEDTAVYYCAAQSFSDYRRTGRKSSYYYWGQGTLVTVSS | low polyreactivity
21 | QVQLVESGGGLVQAGGSLRLSCAASGRTFVGNALGGYIQAPGKERELVAAISSGGSTYYADSVKGRFTISRDNAKITVYLQMNSLNPEDTAVYYCAGLYRRGAHGDYWGQGTQVTVSS | low polyreactivity
22 | QVQLEESGGGLVQAGGSLRLSCAASGIIFPVYAMGWYRQAPGKERELVAAITRSGGITYYADSVKGRFTISRDNEKNTVYLQMNSLKPEDTAVYDCAASVYSLSRRSWMDYWGQGTQVTVSS | low polyreactivity

Row | Sequence | polyreactivity (PSR sort gate)
23 | QVHLVESGGGLVQAGGSLRLSFAASGRIFYYNAMGWYRQAHGKERELVAAIRGGCSTNYADSVKGRFTISRDNAKNTVYLQMNSLKPEDTAVYYCNTAVWGPHRYDYWGQGTQVTVSS | low polyreactivity
24 | QVHLVESGGGLVQAGGSLRLSCAASGRTFDYNAMGWYRQATGKERELVAAIRFGGGSTYYADSVKGRFTISRDNAKNTVYLQMNSLKPEDTAVYYCNASPLWIGWEIVPVGSSHYDYWGQGTQVTVSS | low polyreactivity
25 | QVQLVESGGGLVQAGASLRLSCAASGSILVDNAMGSYRQAPWKERELVARITGSGGSTYYADSVKGRCTISRDNAKNTVYLQMNSLKPEDTAVYYCAARRVNAGWTYGLRGNYWGQGSQVTVSS | low polyreactivity
26 | QVQLVESGGGLVQAGGSLRLSCAASGSTFVYYAMGWYRPAPGKERELVAAISKRGGSTYYADSVKGRFTISRDNAKNTVYLQMNSLKPEDTAVYHCAADQARGRYTLDYWGQGTQVTVSS | high polyreactivity
27 | QVQLVESGAGLVQAGGSLRLSCAASGSIFPRYAMGWYRQAPWTERELVAAITNGGSTDYADSVKGRFTISRDNAKNTVYLQMNSLKPEDTAVYYCAADLAVGIYPEDGEYWGQGTQVTVSS | low polyreactivity
28 | QVQLVESGGGLVQAGGSLRLSCAASGSIFDVYAMGWYRPAPGKERELVATISYGDSSTYYADSVKGRFTISRDNAKNTVYFQMNSLKPEDTAVYYCAADYLTAPRWRLLGEMEYWGQGTQVTVSS | low polyreactivity
29 | QVQLVESGGGLVQAGGSLRLSCAASGSTFHSYVMGWYRPAPGKERELVAAITSRGGSTNYADSFKGRFTISRDNAKNTVYLQLNSLKPEDTAVYYCAADVYLGWSYFRYDYWGQGTQVTVSS | low polyreactivity
30 | QVQHVESGGGLVQAGGSLRLSCAASGRTYVNYVMGWYRQAPGKEREFVAAISRNGGSTYYADSVKGRFSISRDNAKYTFYLQMNSLKPEDTAVYYCAARPRRRYYGSDSWGQGTQVTVSS | high polyreactivity
31 | QVQLVESGGGLVQAGGSLRLSCAASGSIFSYYARGWYRHAPGKERELVADITWDGGSTYYADSVKGRFTISRDNAKNTVYLQMNSLKPEDTAVYYCAAGRIVWSDYYVYTLYDYWGQGTQVTVSS | high polyreactivity
32 | QVQLVESGGGLVQAGGSLRLSCAASGSIFRDYAMGWYRQAPGKEMELVAAISSDGSTYYADSVKGRFTISRDNAKNTVYLQMNSLKPEDTAVYYCNAAHVAHRFIGYTRWNYYYWGQGTQVTVSS | high polyreactivity
33 | QVQLVESGGGLVQAGGSLLLSCAASGFTFSVYAMGWYRQEPGKERELVAAINFSGGNTFYADSVKGRFTISRDYAKNTVYLQMNSLKPEDSAVYYCAAEDYKITRYVVRWYEYWGQGTQVTVSS | high polyreactivity
34 | QVQLVESGGGLVQAGGSLRLSCAASGSTLGYYAMGWYRQAPGKERELVATITRSGGNTYYADSVKGRFTISRDNAKNTVYLQMNSLKPEDTAVYYCAARRLYGSQRGYWGQGTQVTVSS | high polyreactivity
35 | QLQLQESGGGLVQGGGSLRLSCAASGSIYRSWYMGWYRQAPGKERELVASMTEGATTNYAYSVKAALPLAAITRNPVYLQMDSMKPEDTAVYYRAASFGSTYDLVYWGKGTQVTVSS | high polyreactivity
36 | QVQLVESGGGLVQAGGSLRLSCAASGSIFRPNAMGWYRQAPGTEREFVASISGRVGSTYYADSVKGRFTISRDNAKNTVYLQMNSLKPEDTAVYYCAADSRGGYKRNYWGQGTQVTVSS | high polyreactivity
37 | QVQLVESGGGLVQAGGSLRLSCVPSARTFYVYAMGWYRQSPGKQSELVAAIDYSGGDTYYADSVKGRFTISRDNAKNTVYLQMNSLKPVDTAVYYCAAEEYIPIYRYDYEYWGQGTQVTVSS | high polyreactivity
38 | QVHLVESRGVLVQAGGSLRLSCAASGRTFQPYAMGWYRQSPGKERELVADITWNTGRTYYADSVKGRFTISRDNAKNTVYLQMNSLIPEDTAVYYCAGDDLGDYRFYKIYDYWGQGTQVTVSS | high polyreactivity
39 | QVQLVESGGGLVQAGGSLRLSCAASGLIFSQNAMGWYRQAPGKERELVARITLSGTSTYYADSVKGRFTISRDNAKNTVYLQMNSLKPEDTAVYYCNTRSYSYYVPYRYDYWGQGTQVTVSS | high polyreactivity
40 | QVQLVESGGGLVQAGGSLRLSCAASGRIFYGYTMGCYRQAPGKETELVASITIRGSRTYYADSVKGRFTISRDNAKNTVYVQMNSLKPEDTAVYYCAADFVPARTVHRYDYWGQGTQVTVSS | low polyreactivity
41 | QVQLVESGGGLVQAGGSLRLSCAASGRIFNLNAMVRYRQAPGKERELVAAISKSGTRTYYADSVKGRFTISRDNAKNTVYLQMYSLKPEDTAVYYCGAEALYYDRLGWVYLRYDYWGQGTQVTVSS | high polyreactivity
42 | QVHLVESGGGLVQAGGSLRLSCAASGGIFDPYAMGWYRQAPGKERELVAAITNSGGSTYYADTLKGRFTISRDNAKNTVDLQMNSLKPEDTAVSYCAAEGLYVGYDYWGQGTEVTVSS | low polyreactivity
43 | QVQLVESGGGLVQAGGSHRLSCAASGSTFNLNAMGWYRQAPGKERELVAAIDSGGRTNYADSVKGRFTISRDNAKNTVYLQMNSLKPEDTAVYYCADDVYAYPGSWYDYWGQGTQVTVSS | low polyreactivity

— the nanobody polyreactivity screen of Harvey et al. (2022)
